{"source": "patent US6649742", "binders": {"B1": {"name": "he3Fab-rGelA50(C44) (other)", "light": "DIQMTQSPSSLSASVGDRVTITCRASQDINSYLSWFQQKPGKAPKTLIYRANRLESGVPSRFSGSGSGTDYTLTISSLQYEDFGIYYCQQYDESPWTFGGGTKLEIK", "heavy": "EIQLVQSGGGLVKPGGSVRISCAASGYTFTNYGMNWVRQAPGKGLEWMGWINTHTGEPTYADSFKGRFTFSLDDSKNTAYLQINSLRAEDTAVYFCTRRGYDWYFDVWGQGTTVTVSS", "chain": "GLDTVSFSTKGATYITYVNFLNELRVKLKPEGNSHGIPLLRKKCDDPGKAFVLVALSNDNGQLAEIAIDVTSVYVVGYQVRNRSYFFKDAPDAAYEGLFKNTIKTRLHFGGSYPSLEGEKAYRETTDLGIEPLRIGIKKLDENAIDNYKPTEIASSLLVVIQMVSEAARFTFIENQIRNNFQQRIRPANNTISLENKWGKLSFQIRTSGANGMFSEAVELERANGKKYYVTAVDQVKPKIALLKFVDKDPK", "modifications": "Cys 44 disulfide-linked to the M2IT linker on the Fab; lysine residues of the Fab derivatized with 5-methyl-2-iminothiolane (M2IT), 1 M2IT per Fab"}}, "target": "T1, human CD5 cell differentiation marker (human, UniProt P06127 25-495)", "T1 sequence": "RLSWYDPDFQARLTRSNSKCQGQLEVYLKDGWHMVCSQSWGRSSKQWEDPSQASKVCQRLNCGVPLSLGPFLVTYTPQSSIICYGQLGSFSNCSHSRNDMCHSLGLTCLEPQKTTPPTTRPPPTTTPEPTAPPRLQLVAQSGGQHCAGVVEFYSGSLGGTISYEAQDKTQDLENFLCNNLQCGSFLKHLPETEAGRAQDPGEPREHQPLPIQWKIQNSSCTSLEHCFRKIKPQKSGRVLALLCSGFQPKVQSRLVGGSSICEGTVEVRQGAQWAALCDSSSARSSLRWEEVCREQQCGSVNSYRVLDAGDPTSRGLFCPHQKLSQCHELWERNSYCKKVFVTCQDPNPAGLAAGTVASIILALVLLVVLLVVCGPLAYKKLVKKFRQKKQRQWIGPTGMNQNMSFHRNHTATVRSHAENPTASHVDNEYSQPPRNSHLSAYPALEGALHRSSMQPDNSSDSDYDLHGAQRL", "assay": "cell-based or functional assay", "data": [{"binder": "B1", "values": [{"measurement": "IC50 (pMT), CEM Cells; whole cell cytotoxicity (inhibition of protein synthesis)", "value": 173, "unit": "pMT"}, {"measurement": "IC50 (pMT), HSB2 Cells; whole cell cytotoxicity (inhibition of protein synthesis)", "value": 165, "unit": "pMT"}]}]}
